According to patent publication US20230212319A1, “NOVEL ANTIGEN BINDING DOMAINS AND SYNTHETIC ANTIGEN RECEPTORS INCORPORATING THE SAME” (University of Southern California, priority 2020, published 2023):

B1: 22141 (protein)
chain: MALPVTALLLPLALLLHAARPACEVQLLESGGGLIQPGGSLRLSCAASGFTFSSHAMTWVRQAPGKGLEWVSAISGSGDYTHYADSVKGRFTISRDNSKNTVYLQMNSLRAEDSAVYYCAKDEDGGSLLGHRGQGTLVTVSSGTGGGGSGGGGSGGGGSEFDIQMTQSPSSLSASVGDRVTITCKASDHINNWLAWYQQKPGQAPKLLIYGATTLETGVPSRFSGSGSGTDYTLTISSLQPEDFATYYCQQSWNTPWTFGQGTKLEIKRLEGQPKANPTVTLFPPSSEELQANKATLVCLISDFYPGAVTVAWKADGSPVKAGVETTKPSKQSNNKYAASSYLSLTPEQWKSHRSYSCQVTHEGSTVEKTVAPTECSPIKTDVITMDPKDNCSKDANDTLLLQLTNTSAYYMYLLLLLKSVVYFAIITCCLLRRTAFCCNGEKSRAKRSGSGATNFSLLKQAGDVEENPGPTSATMDWIWRILFLVGAATGAHSGPQVQLQESGGGLAQAGGSLRLSCAASGRTFSMGWFRQAPGKEREFVAAITYSGGSPYYASSVRGRFTISRDNAKNTVYLQMNSLKPEDTAVYYCAANPTYGSDWNAENWGQGTQVTVSSGSGGGGSGGGGSGGGGSFEQVQLQQPGAELVKPGASVKMSCKASGYAFSSYWINWMKQKPGQGLEWIGQIYPGDGDTNYNGKFKGRATLTADTSSSTAYMQLSSLTSEDSAVYFCARSITTVVGCAMDYWGQGTSVTVSSTRASTKGPSVFPLAPSSKSTSGGTAALGCLVKDYFPEPVTVSWNSGALTSGVHTFPAVLQSSGLYSLSSVVTVPSSSLGTQTYICNVNHKPSNTKVDKRVEPKSCEVKTDSTDHVKPKETENTKQPSKSCHKPKAIVHTEKVNMMSLTVLGLRMLFAKTVAVNFLLTAKLFFLRAKRSGSGVKQTLNFDLLKLAGDVESNPGPSRAHMTEYKPTVRLATRDDVPRAVRTLAAAFADYPATRHTVDPDRHIERVTELQELFLTRVGLDIGKVWVADDGAAVAVWTTPESVEAGAVFAEIGPRMAELSGSRLAAQQQMEGLLAPHRPKEPAWFLATVGVSPDHQGKGLGSAVVLPGVEAAERAGVPAFLETSAPRNLPFYERLGFTVTADVEVPEGPRTWCMTRKPGA
B2: 22143 (protein)
chain: MALPVTALLLPLALLLHAARPQVQLVESGGGLVQPGGSLRLSCAASGFTFTNHAMSWVRQAPGKGLELVSSISGNGRTTYYADSVKGRFTISRDISKNTLDLQMNSLRAEDTAVYYCAKDGGETLVDSRGQGTLVTVSSLEGGGGSGGGGSIEGGGGSGGGGSKVQLLESGGGLVQPGGSLRLSCAASGFIFSSYAMSWVRQAPGKGQEWVSGVSGTGVNTYYADSVKGRFTISRDNSKNTLYLQMNSLRAEDTAVYYCASGKGWDSGSWYEDYRGQGTLVTVSSGTGGGGSGGGGSGGGGSEFDIQMTQSPSSLSASVGDRVTITCKASDHINNWLAWYQQKPGQAPKLLIYGATTLETGVPSRFSGSGSGTDYTLTISSLQPEDFATYYCQQSWNTPWTFGQGTKLEIKRLEDLKNVFPPEVAVFEPSKAEIAHTQKATLVCLATGFYPDHVELSWWVNGKEVHSGVCTDPQPLKEQPALNDSRYCLSSRLRVSATFWQNPRNHFRCQVQFYGLSENDEWTQDRAKPVTQIVSAEAWGRADCGITSASYHQGVLSATILYEILLGKATLYAVLVSALVLMAMVKRKDSRGRAKRSGSGATNFSLLKQAGDVEENPGPTSATMDWIWRILFLVGAATGAHSGPQVQLQESGGGLAQAGGSLRLSCAASGRTFSMGWFRQAPGKEREFVAAITYSGGSPYYASSVRGRFTISRDNAKNTVYLQMNSLKPEDTAVYYCAANPTYGSDWNAENWGQGTQVTVSSGSGGGGSGGGGSGGGGSFEQVQLQQPGAELVKPGASVKMSCKASGYAFSSYWINWMKQKPGQGLEWIGQIYPGDGDTNYNGKFKGRATLTADTSSSTAYMQLSSLTSEDSAVYFCARSITTVVGCAMDYWGQGTSVTVSSTRIQNPDPAVYQLRDSKSSDKSVCLFTDFDSQTNVSQSKDSDVYITDKCVLDMRSMDFKSNSAVAWSNKSDFACANAFNNSIIPEDTFFPSSDVPCDVKLVEKSFETDTNLNFQNLSVIGFRILLLKVAGFNLLMTLRLWSSRAKRSGSGVKQTLNFDLLKLAGDVESNPGPSRGHMTEYKPTVRLATRDDVPRAVRTLAAAFADYPATRHTVDPDRHIERVTELQELFLTRVGLDIGKVWVADDGAAVAVWTTPESVEAGAVFAEIGPRMAELSGSRLAAQQQMEGLLAPHRPKEPAWFLATVGVSPDHQGKGLGSAVVLPGVEAAERAGVPAFLETSAPRNLPFYERLGFTVTADVEVPEGPRTWCMTRKPGA
B3: 22106 (protein)
chain: MALPVTALLLPLALLLHAARPDIQMTQSPSSLSASVGDRVTITCKASDHINNWLAWYQQKPGQAPKLLIYGATTLETGVPSRFSGSGSGTDYTLTISSLQPEDFATYYCQQSWNTPWTFGQGTKLEIKRLEDLKNVFPPEVAVFEPSKAEIAHTQKATLVCLATGFYPDHVELSWWVNGKEVHSGVCTDPQPLKEQPALNDSRYCLSSRLRVSATFWQNPRNHFRCQVQFYGLSENDEWTQDRAKPVTQIVSAEAWGRADCGITSASYHQGVLSATILYEILLGKATLYAVLVSALVLMAMVKRKDSRGRAKRSGSGATNFSLLKQAGDVEENPGPTSATMDWIWRILFLVGAATGAHSGPQVQLQESGGGLAQAGGSLRLSCAASGRTFSMGWFRQAPGKEREFVAAITYSGGSPYYASSVRGRFTISRDNAKNTVYLQMNSLKPEDTAVYYCAANPTYGSDWNAENWGQGTQVTVSSGSGGGGSGGGGSGGGGSFEQVQLQQPGAELVKPGASVKMSCKASGYAFSSYWINWMKQKPGQGLEWIGQIYPGDGDTNYNGKFKGRATLTADTSSSTAYMQLSSLTSEDSAVYFCARSITTVVGCAMDYWGQGTSVTVSSTRIQNPDPAVYQLRDSKSSDKSVCLFTDFDSQTNVSQSKDSDVYITDKCVLDMRSMDFKSNSAVAWSNKSDFACANAFNNSIIPEDTFFPSSDVPCDVKLVEKSFETDTNLNFQNLSVIGFRILLLKVAGFNLLMTLRLWSSRAKRSGSGVKQTLNFDLLKLAGDVESNPGPSRGHMTEYKPTVRLATRDDVPRAVRTLAAAFADYPATRHTVDPDRHIERVTELQELFLTRVGLDIGKVWVADDGAAVAVWTTPESVEAGAVFAEIGPRMAELSGSRLAAQQQMEGLLAPHRPKEPAWFLATVGVSPDHQGKGLGSAVVLPGVEAAERAGVPAFLETSAPRNLPFYERLGFTVTADVEVPEGPRTWCMTRKPGA
B4: 22012 (protein)
chain: MDWIWRILFLVGAATGAHSQLQLQESGPGLVKPSETLSLTCTVSGGSVSSSSYYWGWIRQPPGKRLELIGSIYYGGSTYFNPSLKTRVTISVDTSKNQFSLKLSSVTAADTAVYYCAGGDTYGPVGQWPSDYRGQGTLVTVSSLEDLKNVFPPEVAVFEPSEAEISHTQKATLVCLATGFYPDHVELSWWVNGKEVHSGVCTDPQPLKEQPALNDSRYCLSSRLRVSATFWQNPRNHFRCQVQFYGLSENDEWTQDRAKPVTQIVSAEAWGRADCGFTSESYQQGVLSATILYEILLGKATLYAVLVSALVLMAMVKRKDSRGRAKRSGSGATNFSLLKQAGDVEENPGPTSMDWIWRILFLVGAATGAHSFEVQLLESGGGLIQPGGSLRLSCAASGFTFSSHAMTWVRQAPGKGLEWVSAISGSGDYTHYADSVKGRFTISRDNSKNTVYLQMNSLRAEDSAVYYCAKDEDGGSLLGHRGQGTLVTVSSTRIQNPDPAVYQLRDSKSSDKSVCLFTDFDSQTNVSQSKDSDVYITDKCVLDMRSMDFKSNSAVAWSNKSDFACANAFNNSIIPEDTFFPSPESSCDVKLVEKSFETDTNLNFQNLSVIGFRILLLKVAGFNLLMTLRLWSSRAKRSGSGVKQTLNFDLLKLAGDVESNPGPSRGHMTEYKPTVRLATRDDVPRAVRTLAAAFADYPATRHTVDPDRHIERVTELQELFLTRVGLDIGKVWVADDGAAVAVWTTPESVEAGAVFAEIGPRMAELSGSRLAAQQQMEGLLAPHRPKEPAWFLATVGVSPDHQGKGLGSAVVLPGVEAAERAGVPAFLETSAPRNLPFYERLGFTVTADVEVPEGPRTWCMTRKPGA

Each molecule was assayed on RAJI cells (assay: JNG assay, co-culture with RAJI cells). Conditions: JNG cells expressing construct, co-culture with Raji.
Format: cell-based
Method in brief: (§1)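 Read-out is NFAT-driven GFP measured by flow cytometry after ~4–18 h co-culture of SAR-expressing JNG cells with target cells (E:T about 1:2). SARs were introduced by lentiviral spinfection and selected with puromycin or blasticidin when possible; scores (+/- to 5+ ≈ 5–50% GFP+) are relative to parental JNG cells.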

Molecule | NFAT-GFP ASSAY: Raji
B1 | 4+ (refer to approximately 5%, 10%, 20%, 30%, 40% and 50% GFP positive cells)
B2 | 2+ (refer to approximately 5%, 10%, 20%, 30%, 40% and 50% GFP positive cells)
B3 | 5+ (refer to approximately 5%, 10%, 20%, 30%, 40% and 50% GFP positive cells)

Each molecule was assayed on L363 cells (assay: JNG assay, co-culture with L363 cells). Conditions: co-culture with L363.
Format: cell-based
Method in brief: as §1

Molecule | NFAT-GFP ASSAY: L363
B2 | 2+ (refer to approximately 5%, 10%, 20%, 30%, 40% and 50% GFP positive cells)
B4 | + (refer to approximately 5%, 10%, 20%, 30%, 40% and 50% GFP positive cells)

Each molecule was assayed on RS;411 (assay: JNG assay, co-culture with RS;411 cells). Conditions: co-culture with RS411.
Format: cell-based
Method: Cellular supernatant is collected and assayed for the induction of cytokines (e.g., IL2).
JNG (Jurkat cells expressing EGFP under an NFAT promoter) were infected with lentiviral vectors encoding different single chain and multi-chain SARs by spinfection in the presence of 8 µg/ml of Polybrene® (Sigma, Catalog no. H9268). The Jurkat-NFAT-GFP cells are engineered in such a way that the IL-2 promoter, which carries NFAT binding sites, is cloned upstream of the GFP gene. These cells have been used to study signaling via TCR and CAR. The different SARs were stably expressed in Jurkat NFAT-GFP cells by lentiviral mediated gene transfer, followed by selection with puromycin or blasticidin. No drug selection was used in case the construct lacked an antibiotic resistance gene. The SAR-expressing Jurkat-NFAT-GFP cells were cocultured with the target cells at E:T ratio of approximately 1:2 for approximately 4 hours to 18 hours. When the interaction between SIRs and their target antigen results in activation of the NFAT pathway, GFP expression is induced. […] GFP expression was monitored by FACS analysis. The Jurkat-NFAT-GFP (parental) cells were used as control. The structure of different constructs can be determined based on their names. […] The sequence of the other constructs in the table can be similarly determined from their names and by referring to the different Tables of this disclosure that provide the names and SEQ ID NO of the different modules. Alternatively, the composition and modular architecture of the different SAR constructs can be determined from their sequences by bioinformatics tools, including using nucleic acid and amino acids homology searches. A SAR is considered positive in the assay in case the SAR expressing Jurkat-NFAT-GFP cells show greater % GFP positive cells when cultured with the target cell line as compared to parental Jurkat-NFAT-GFP cells. […] In general, the number +/-, +, 2+, 3+, 4+, 5+ refer to approximately 5%, 10%, 20%, 30%, 40% and 50% GFP positive cells. The % of GFP induction in the above assay is dependent not only the relative strength of the SAR but also, among other factors, on the relative level of expression of the SAR in the JNG cells and the relative level of expression of the target antigen in the target cell line. To control for the difference in gene transduction efficiency of the different SAR constructs, the experiment was conducted with JNG cells transduced with SAR constructs co-expressing a drug resistance gene (e.g., puromycin or PAC) followed by drug selection to generate a stable population of SAR-expressing cells. It is to be noted that the drug resistance gene (e.g., PAC) in the SAR constructs is optional and in vivo studies were conducted with SAR constructs lacking the PAC gene.

Molecule | NFAT-GFP ASSAY: RS411
B1 | 4+ (refer to approximately 5%, 10%, 20%, 30%, 40% and 50% GFP positive cells)
B2 | 2+ (refer to approximately 5%, 10%, 20%, 30%, 40% and 50% GFP positive cells)
B4 | +/- (refer to approximately 5%, 10%, 20%, 30%, 40% and 50% GFP positive cells)
B3 | + (refer to approximately 5%, 10%, 20%, 30%, 40% and 50% GFP positive cells)
